In patent US20250250357A1 (NANJING ZAIMING PHARMACEUTICAL, published 2025) one finds OD450 data, which are given here for nine molecules.

Numbering of substitutions follows the chain as printed.

First the molecules themselves.
B1: S009-F8-7.5 (antibody, human IgG1, kappa, V domains shown)
VH: DVQLQESGPGLVKPSQSLSLTCSVTGYSITSGYYWNWIRQFPGNKLEWMAYIRYDGSNNYNPSLKNRISIIRDTSKNQFFLRLNSVTTEDTATYYCAKSYYGMDDWGQGISVTVSS
VL: DIQMTQSPASLSASVGETVTITCRTSGDIHNYLAWYQQKQGKSPQLLVYKAKTLENGVPSRFTGSGSGTQFSLKIDSLQPEDFGTYYCQHFWTTPYTFGGGTKLEIKR
notes: Human-murine chimeric antibody, human IgG1 heavy and kappa light constant regions
B2: S009-F8-4.5 (antibody, human IgG1, kappa, V domains shown)
VH: QVQLQQPGAELVKPGASVKLSCKASGYTFTIYWMHWVKQRPGQGLEWIGMIHPNSGNTNYNEKFKSKATLTVDKSSSTAYMQLSSLTSEDSAVYYCSLIHWYFDVWGTGTTVTVSS
VL: QIVLTQSPAIMSASPGEKVTMTCSASSSVSYMYWYQQKPGSSPRLLIYDTSNLASGVPVRFSGSGSGTSYSLTISRMEAEDAATYYCQQWSSYPLTFGAGTKLELKR
notes: as for B1
B3: S009-F8-13.8 (antibody, human IgG1, kappa, V domains shown)
VH: EFQLQQSGPELVKPGASVKISCKASGYSFTDYNMNWVKQTNGKSLEWIGIINPNYGTSSYNQKFKGKATLTVDQSSSTAYMQLNSLTSEDSAVYYCARVGRDNSGFDYWGQGTTLTVSS
VL: B2 VL with L95P, A99S, K102E, L105I
notes: as for B1
B4: S009-F8-12.13 (antibody, human IgG1, kappa, V domains shown)
VH: QVQLQQPGAELVKPGASVKLSCKASGYTFTSYWMHWVKQRPGQGLEWIGMIHPNSGSTNYNEKFKSKATLTVDKSSSTAYMQLSSLTSEDSAVYYCARRTPIITLVGHWYFDVWGTGTTVTVSS
VL: DIVMTQSHKFMSTSVGDRVSITCKASQDVGTAVAWYQQKPGQSPKLLIYWASTRHTGVPDRFTGSGSGTDFTLTISNVQSEDLADYFCQQYSSYPLTFGAGTKLELKR
notes: as for B1
B5: S009-F8-5.15 (antibody, human IgG1, kappa, V domains shown)
VH: QVQLQQPGTELVKPGASVKLSCKASGYTFTSYWMHWVKQRPGQGLEWIGHSNPSNGGTNYNEKFKSKATLTVDKSSSTAYMQLSSLTSEDSAVYYCARWVRGSNYEYFDVWGTGTTVTVSS
VL: DIVMTQSQKFMSTTVGDRVSIICKASQNVGSAVAWCQQKPGQSPKLLIYSASNRYTGVPDRFTGSGSGTDFTLTISNMQSEDLADYFCQQYSSYPLTFAGGTKLEIKR
notes: as for B1
B6: S009-F8-8.22 (antibody, human IgG1, kappa, V domains shown)
VH: EVQLQQSGPELVKPGASVKMSCKASGYTFTDYIIHWVKQSHGKSLEWIAYIFPNNGGTGYNQKFRGKATLTVNKSSSTAYMELRSLTSEDSAVYYCARWRLRQYFDVWGTGTTVTVSS
VL: B5 VL with T14I, I22T, S31T, C36Y, A99G
notes: as for B1
B7: F7.44.20-VL-VH (scFv, not shown: small tags and cut ends)
scFv: QIVLTQSPALMSASPGEKVTLTCSASSSVISSYLSWYQQKPGSSPKLLIYRTSNLASGVPARFSGSGSGTSYSLTISSMEAEDAASYFCHQWSSFPYTFGGGTKLEIKGGGGSGGGGSGGGGSEVQLQQSGPELVKPGASVKIPCKASGYTFTDYNMDWVKQSHGKSLEWIGDINPSTGGTIYNQKFNGKATLTEDKSASTVYMEFRSLTSDDTAVYYCARRRIGTGYFDVWGTGTTVTVSS
notes: also called S009-F7.44.20 parental variable regions, VL-VH order
B8: F7.44.20-H16 (scFv, not shown: small tags and cut ends)
scFv: EVQLVQSGAEVKKPGASVKVSCKASGYTFTDYNMDWVRQAPGQGLEWMGDINPSTGGTIYNQKFSGRVTMTEDKSASTVYMELSSLRSEDTAVYYCARRRIGTGYFDVWGQGTTVTVSSGGGGSGGGGSGGGGSEIVLTQSPATLSLSPGERATLSCSASSSVISSYLSWYQQKPGSSPRLLIYRTSNLASGIPARFSGSGSGTDYTLTISSLEPEDFAVYYCHQWSSFPYTFGGGTKVEIK
notes: also called S009-F7.44.20 humanized antibody VH2a + VL4
B9: F7.44.20 (scFv, not shown: small tags and cut ends)
scFv: EVQLQQSGPELVKPGASVKIPCKASGYTFTDYNMDWVKQSHGKSLEWIGDINPSTGGTIYNQKFNGKATLTEDKSASTVYMEFRSLTSDDTAVYYCARRRIGTGYFDVWGTGTTVTVSSGGGGSGGGGSGGGGSQIVLTQSPALMSASPGEKVTLTCSASSSVISSYLSWYQQKPGSSPKLLIYRTSNLASGVPARFSGSGSGTSYSLTISSMEAEDAASYFCHQWSSFPYTFGGGTKLEIK
notes: also called S009-F7.44.20 (parental variable regions, in the humanized-antibody ELISA)

T2 sequence (Q13421 other isoform, or with tags, fused parts or gaps limits assumed): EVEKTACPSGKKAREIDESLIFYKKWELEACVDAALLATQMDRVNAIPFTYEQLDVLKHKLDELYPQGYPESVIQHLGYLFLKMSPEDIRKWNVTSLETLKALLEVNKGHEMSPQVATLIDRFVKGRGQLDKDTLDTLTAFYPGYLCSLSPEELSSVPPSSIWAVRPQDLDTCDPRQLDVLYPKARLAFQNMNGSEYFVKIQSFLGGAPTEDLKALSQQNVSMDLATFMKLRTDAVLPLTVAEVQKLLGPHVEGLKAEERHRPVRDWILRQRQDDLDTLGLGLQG
T3 sequence (Q13421 495-606, form in doubt): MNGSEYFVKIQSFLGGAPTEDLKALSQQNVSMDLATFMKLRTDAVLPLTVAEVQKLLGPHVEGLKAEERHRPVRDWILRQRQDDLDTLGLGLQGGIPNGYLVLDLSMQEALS

The first assay deals with T1, human MSLN-FL-his protein (human, UniProt Q13421 296-580).
T1 construct: Made in HEK293E cells, purified on nickel column; it is put last here; also called human MSLN full-length protein; hMSLN-FL-his; not shown: His tag
T1 sequence (Q13421 other isoform, or with tags, fused parts or gaps): as the sequence (Q13421 other isoform, or with tags, fused parts or gaps limits assumed) above, with R14P counted along it
Kind of assay: ELISA on coated antigen, antibody 1 nM. In general terms: ELISA stands for enzyme-linked immunosorbent assay.
On to B1, for which the OD450 is 2.55 OD.
Same read-out and setting: then B2, with 2.8 OD.
As for B3, the OD450 amounted to 2.05 OD.
Molecule B4 displayed an OD450 of 2.42 OD.
In the case of B5, the OD450 came to 2.51 OD.
Consider B6, for which the OD450 was found to be 2.75 OD.

A further assay addresses T2, human MSLN-hFc protein (Acro, Cat. No. MSN-H5253) (human, UniProt Q13421 296-580).
T2 construct: the method names the coated protein as human MSLN-hFc (Acro); also called human MSLN full-length protein
Kind of assay: ELISA on coated antigen, antibody 1 nM.
B7 yielded an OD450 of 1.06 OD450.
Turning to B8, the OD450 came out at 1.12 OD450.
Still for that read-out and setting: next, B9: 0.83 OD450.

The next assay addresses T3, human MSLN-R3 protein (human, UniProt Q13421 487-598).
T3 construct: also called hMSLN-R3
Nature of the assay: ELISA on coated antigen, antibody 1 nM.
As to B7, the OD450 was found to be 0.55 OD450.
On the same count and under the same terms, then B8, with 0.72 OD450; and B9, with 0.39 OD450.

The target of the next assay is T1, human MSLN-FL-his protein. Kind of assay: ELISA on coated antigen, antibody 10 nM.
B1 returned an OD450 of 2.73 OD.
Same read-out and setting: then B2, with 2.79 OD; and B3, with 2.34 OD.
B4 returned an OD450 of 2.53 OD.
In turn, B5 showed an OD450 of 2.75 OD.
The same measure, in the same setting: then B6, with 3.15 OD.

For the next assay, the target named is T2, human MSLN-hFc protein (Acro, Cat. No. …). Nature of the assay: ELISA on coated antigen, antibody 10 nM.
In turn, B7 had an OD450 of 2.14 OD450.
On the same count and under the same terms, then B8, with 2.4 OD450; and B9, with 2.48 OD450.

The target in the next assay is T3, human MSLN-R3 protein. Nature of the assay: ELISA on coated antigen, antibody 10 nM.
B7: the OD450 worked out at 1.68 OD450.
Still for that read-out and setting: then B8, with 1.6 OD450; and B9, with 1.68 OD450.

Another assay addresses T1, human MSLN-FL-his protein. Nature of the assay: ELISA on coated antigen, antibody 0.1 nM.
In turn, B1 had an OD450 of 1.88 OD.
Same read-out and setting: then B2, with 1.31 OD.
Same read-out and setting: next, B3: 1.18 OD; B4: 2.22 OD; B5: 1.53 OD.
On the same count and under the same terms, next, B6: 1.97 OD.

The target in the next assay is T1, human MSLN-FL-his protein. Nature of the assay: ELISA on coated antigen, antibody 100 nM.
B1 showed an OD450 of 3.22 OD.
On the same count and under the same terms, then B2, with 2.94 OD; and B3, with 2.69 OD; and B4, with 2.94 OD.
The same measure, in the same setting: next, B5: 3.16 OD; B6: 3.15 OD.

The next assay concerns the target T2, human MSLN-hFc protein (Acro, Cat. No. …). Kind of assay: ELISA on coated antigen, antibody 0.1 nM.
On to B7, for which the OD450 was 0.11 OD450.
On the same count and under the same terms, next, B8: 0.16 OD450; B9: 0.22 OD450.

The next assay has the same target. Nature of the assay: ELISA on coated antigen, antibody 100 nM.
Molecule B7 showed an OD450 of 2.98 OD450.
In turn, B8 yielded an OD450 of 2.97 OD450.
Same read-out and setting: then B9, with 2.97 OD450.

The target of a further assay is T3, human MSLN-R3 protein. Kind of assay: ELISA on coated antigen, antibody 0.1 nM.
The molecule B7 gave an OD450 of 0.08 OD450.
Take B8: the OD450 stood at 0.1 OD450.
In turn, B9 gave an OD450 of 0.07 OD450.

The target in the next assay is T3, human MSLN-R3 protein. Kind of assay: ELISA on coated antigen, antibody 100 nM.
Turning to B7, the OD450 is 1.8 OD450.
The same measure, in the same setting: then B8, with 1.8 OD450; and B9, with 1.96 OD450.

In another assay the target is T1, human MSLN-FL-his protein. Nature of the assay: ELISA on coated antigen, antibody 0.01 nM.
In turn, B1 displayed an OD450 of 0.49 OD.
On the same count and under the same terms, next, B2: 0.18 OD.
The same measure, in the same setting: next, B3: 0.24 OD; B4: 1.26 OD.
On the same count and under the same terms, then B5, with 0.34 OD; and B6, with 0.91 OD.

The target of the next assay is T2, human MSLN-hFc protein (Acro, Cat. No. …). Nature of the assay: ELISA on coated antigen, antibody 0.01 nM.
As for B7, the OD450 was determined as 0.05 OD450.
Same read-out and setting: then B8, with 0.05 OD450; and B9, with 0.05 OD450.

A further assay addresses T3, human MSLN-R3 protein. Kind of assay: ELISA on coated antigen, antibody 0.01 nM.
Turning to B7, the OD450 was 0.05 OD450.
The same measure, in the same setting: then B8, with 0.06 OD450.
The same measure, in the same setting: then B9, with 0.04 OD450.

In a further assay the target is T1, human MSLN-FL-his protein. Kind of assay: ELISA on coated antigen, antibody 0.001 nM.
B1 gave an OD450 of 0.12 OD.
Still for that read-out and setting: then B2, with 0.1 OD.
The same measure, in the same setting: then B3, with 0.07 OD; and B4, with 0.49 OD.
On the same count and under the same terms, then B5, with 0.08 OD; and B6, with 0.23 OD.

A further assay deals with T2, human MSLN-hFc protein (Acro, Cat. No. …). Nature of the assay: ELISA on coated antigen, antibody 0.001 nM.
In the case of B7, the OD450 is 0.2 OD450.
Same read-out and setting: next, B8: 0.05 OD450.
B9 displayed an OD450 of 0.17 OD450.

The target in another assay is T3, human MSLN-R3 protein. Nature of the assay: ELISA on coated antigen, antibody 0.001 nM.
Consider B7, for which the OD450 stood at 0.04 OD450.
The same measure, in the same setting: then B8, with 0.04 OD450.
Same read-out and setting: then B9, with 0.04 OD450.

A further assay addresses T1, human MSLN-FL-his protein. Nature of the assay: ELISA on coated antigen, antibody 0.0001 nM.
Take B1: the OD450 was found to be 0.06 OD.
The same measure, in the same setting: then B2, with 0.07 OD.
Same read-out and setting: next, B3: 0.05 OD.
The same measure, in the same setting: next, B4: 0.32 OD.
B5 had an OD450 of 0.05 OD.
Same read-out and setting: then B6, with 0.1 OD.

The next assay deals with T2, human MSLN-hFc protein (Acro, Cat. No. …). Kind of assay: ELISA on coated antigen, antibody 0.0001 nM.
Regarding B7, the OD450 turned out to be 0.04 OD450.
In turn, B8 had an OD450 of 0.05 OD450.
Same read-out and setting: next, B9: 0.04 OD450.

A further assay deals with T3, human MSLN-R3 protein. Kind of assay: ELISA on coated antigen, antibody 0.0001 nM.
B7 registered an OD450 of 0.05 OD450.
The same measure, in the same setting: then B8, with 0.04 OD450; and B9, with 0.04 OD450.

Another assay addresses T1, human MSLN-FL-his protein. Nature of the assay: ELISA on coated antigen, no antibody (blank, column 'none').
The molecule B1 returned an OD450 of 0.05 OD.
Still for that read-out and setting: next, B2: 0.06 OD.
The same measure, in the same setting: next, B3: 0.05 OD; B4: 0.05 OD; B5: 0.05 OD.
In turn, B6 gave an OD450 of 0.05 OD.
